# Results from paper PMC5551578 (2017).
# T1: tetanus toxoid (UniProt P04958 1-1315)
# T1 chain: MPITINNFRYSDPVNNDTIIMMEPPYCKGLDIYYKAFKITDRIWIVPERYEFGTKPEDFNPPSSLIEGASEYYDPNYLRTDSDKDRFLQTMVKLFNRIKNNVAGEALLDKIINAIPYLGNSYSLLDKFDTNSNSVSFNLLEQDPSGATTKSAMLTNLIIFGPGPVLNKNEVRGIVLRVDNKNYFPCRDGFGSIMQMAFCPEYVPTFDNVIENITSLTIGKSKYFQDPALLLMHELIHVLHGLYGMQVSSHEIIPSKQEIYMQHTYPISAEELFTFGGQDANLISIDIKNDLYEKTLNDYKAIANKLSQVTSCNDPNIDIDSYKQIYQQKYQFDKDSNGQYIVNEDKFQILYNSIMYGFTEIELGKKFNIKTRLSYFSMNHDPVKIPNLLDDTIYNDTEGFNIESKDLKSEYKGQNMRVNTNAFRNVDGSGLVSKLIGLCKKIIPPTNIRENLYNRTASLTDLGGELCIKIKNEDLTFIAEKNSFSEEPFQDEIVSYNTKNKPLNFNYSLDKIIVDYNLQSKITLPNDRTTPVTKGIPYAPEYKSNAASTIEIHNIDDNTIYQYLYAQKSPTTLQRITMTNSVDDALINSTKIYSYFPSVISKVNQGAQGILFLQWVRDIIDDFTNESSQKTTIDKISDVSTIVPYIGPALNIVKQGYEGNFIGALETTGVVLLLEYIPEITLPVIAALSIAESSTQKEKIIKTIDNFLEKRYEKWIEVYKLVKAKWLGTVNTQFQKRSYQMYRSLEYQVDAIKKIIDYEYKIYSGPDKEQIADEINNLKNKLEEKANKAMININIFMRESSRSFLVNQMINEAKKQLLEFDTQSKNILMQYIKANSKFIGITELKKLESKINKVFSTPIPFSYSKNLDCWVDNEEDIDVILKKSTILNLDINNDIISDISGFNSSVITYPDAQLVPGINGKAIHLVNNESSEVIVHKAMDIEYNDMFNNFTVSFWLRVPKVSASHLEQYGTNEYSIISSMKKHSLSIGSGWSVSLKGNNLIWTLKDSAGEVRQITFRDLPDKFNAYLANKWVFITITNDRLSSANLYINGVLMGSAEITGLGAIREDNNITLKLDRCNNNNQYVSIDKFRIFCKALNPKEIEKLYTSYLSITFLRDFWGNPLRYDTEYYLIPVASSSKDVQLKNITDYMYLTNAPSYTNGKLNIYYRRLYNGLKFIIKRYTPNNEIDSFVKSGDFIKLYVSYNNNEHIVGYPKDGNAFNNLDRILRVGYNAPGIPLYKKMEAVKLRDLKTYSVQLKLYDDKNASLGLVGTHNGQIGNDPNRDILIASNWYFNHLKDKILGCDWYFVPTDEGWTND
# Biological target: T1, tetanus toxoid
# Assay: ELISA
row,Binder,EC50
1,"TT-Ab10 (antibody, V domains shown) VH: EVQLVESGGGLVQPGGSLRVSCGASGFTFANFWMSWVRQAPGKGLEWVANINQDGNERKYVDSVKGRFTISRDNDKNSLYLQMNSLRAEDTAVYFCAREYGSYWRTYYFDDWGQGTLVTVSS VL: DIVMTQSPATLSLSPGERATLSCRASQSVSNYLAWYQQKPGQAPRLLIYDASNRASGTPARFSGSGFGTDFTLTISSLDPEDFAVYYCQQGSNWLTFGGGTKVEIK",869 nM
2,"TT-Ab7 (antibody, V domains shown) VH: EVQLVESGGGWVQPGGSLRLSCAASGFTFNSFGSYGMSWVRQAPGKGLEWVSHISASGAATYYADSVKGRFTISRDNSKNTLLLQMNDLRGEDTATYYCARSVQQYLGLLGYWGQGTLVTVSS VL: QSVLTQSPSASASLGATVKLTCTLSSGHTNYAIAWHQLQPQKAPRYLLKISNDGSHKRGDGIPDRFSGSSSGAERYLTISSLQSEDEAEYYCQTWGAGMGMFGGGTKLTVL",655 nM
3,"TT-Ab9 (antibody, V domains shown) VH: EVQLVESGGSLVQPGGSLRLSCVGTGFTFNTYWMSWVRQAPGKGLEWVANIKQDGREKHYVDSVMGRFTVSRDNAMNALYLQVNSLRVEDTAVYYCARGMTAWSLGGYQYDYWGQGTQVTVSS VL: DIQMTQSPSSLSASVGDTVTITCRASQGIRSDLGWYQQRPGKAPKLLVYTASTLQTGVPSRFSGSGFGTDFTLTISSLQPEDFATYYCLQNYNYPRTFGQGTKVEIK",1050 nM
4,"TT-Ab12 (antibody, V domains shown) VH: QVQLQESGPGLVKPSETLSLTCNVSGASISRYYWAWIRQPPGKGLEWIGYIYDSGTTTYNTSLKSRVTISRDTSKNQFSLNMMSVTAADTAVYYCARARYYYDSTGYFYGWLDPWGQGRLVTVSF VL: DIQMTQSPSTLSASVGDRVTITCRASQSINIWLAWYQQRPGKAPDLLIYKASTLQSGVPSRFSGSGSGTEFTLTISSVQPDDFATYYCQQYKSYSCSFGQGTKVEIN",228 nM
5,"TT-Ab4 (antibody, V domains shown) VH: EVQLVQSGAEMKKPGSSVKVSCRMSGGKFNNYAMSWVRQAPGQGLEWVGGIIPVLGTANYAQKFQDRVAITADKSTNTAYMELSSLRSDDTAVYYCARVWGTVVTQGPSQVQYNHYGMDVWGQGTTVTVSS VL: DIQLTQSPSSLSASVGDRVTITCRATQSISSSLNWYQHKPGKAPNLLISAASNLQSGVPSRFSGSGSRTDFTLTITNLQPEDFATYYCQQSYTTPLTFGGGTKVEIK",1060 nM
